Data on one molecule can be found in article PMC6781449 (The Journal of Cell Biology, 2019).

The target of this assay is T1, GST-leupaxin FL (mouse, UniProt Q99N69 1-386).
T1 sequence (looked up): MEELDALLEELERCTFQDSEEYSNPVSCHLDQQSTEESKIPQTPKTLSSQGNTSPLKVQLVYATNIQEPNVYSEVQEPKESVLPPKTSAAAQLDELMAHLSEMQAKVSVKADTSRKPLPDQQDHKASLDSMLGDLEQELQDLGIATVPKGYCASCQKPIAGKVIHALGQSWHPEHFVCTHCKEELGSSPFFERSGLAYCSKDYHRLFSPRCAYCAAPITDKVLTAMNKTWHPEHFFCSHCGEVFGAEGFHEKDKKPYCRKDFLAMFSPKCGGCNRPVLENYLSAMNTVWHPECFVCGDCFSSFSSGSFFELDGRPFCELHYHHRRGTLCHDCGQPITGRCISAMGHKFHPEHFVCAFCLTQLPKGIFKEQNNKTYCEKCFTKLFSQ
As to the kind of experiment: pull-down.

B1: HisSUMO-tagged kindlin-3 F0 domain (domain or fragment, UniProt Q8K1B8 1-97, looked up)
chain: MAGMKTASGDYIDSSWELRVFVGEEDPEAQSVTLRVTGESHIGGVLLKIVEEINRKQDWSDHAIWWEQKRQWLLQTHWTLDKYGILADARLFFGPQH
Turning to B1, the binding result is reported as “binds”.
